Molecular target: the molecule itself
Assay: FRET or BRET

B1: full-length EphA3 (erythropoietin-producing hepatocellular carcinoma A3 receptor tyrosine kinase) tagged at the C-terminus with mTurq or eYFP (receptor, UniProt P29320 21-983, looked up)
chain: ELIPQPSNEVNLLDSKTIQGELGWISYPSHGWEEISGVDEHYTPIRTYQVCNVMDHSQNNWLRTNWVPRNSAQKIYVELKFTLRDCNSIPLVLGTCKETFNLYYMESDDDHGVKFREHQFTKIDTIAADESFTQMDLGDRILKLNTEIREVGPVNKKGFYLAFQDVGACVALVSVRVYFKKCPFTVKNLAMFPDTVPMDSQSLVEVRGSCVNNSKEEDPPRMYCSTEGEWLVPIGKCSCNAGYEERGFMCQACRPGFYKALDGNMKCAKCPPHSSTQEDGSMNCRCENNYFRADKDPPSMACTRPPSSPRNVISNINETSVILDWSWPLDTGGRKDVTFNIICKKCGWNIKQCEPCSPNVRFLPRQFGLTNTTVTVTDLLAHTNYTFEIDAVNGVSELSSPPRQFAAVSITTNQAAPSPVLTIKKDRTSRNSISLSWQEPEHPNGIILDYEVKYYEKQEQETSYTILRARGTNVTISSLKPDTIYVFQIRARTAAGYGTNSRKFEFETSPDSFSISGESSQVVMIAISAAVAIILLTVVIYVLIGRFCGYKSKHGADEKRLHFGNGHLKLPGLRTYVDPHTYEDPTQAVHEFAKELDATNISIDKVVGAGEFGEVCSGRLKLPSKKEISVAIKTLKVGYTEKQRRDFLGEASIMGQFDHPNIIRLEGVVTKSKPVMIVTEYMENGSLDSFLRKHDAQFTVIQLVGMLRGIASGMKYLSDMGYVHRDLAARNILINSNLVCKVSDFGLSRVLEDDPEAAYTTRGGKIPIRWTSPEAIAYRKFTSASDVWSYGIVLWEVMSYGERPYWEMSNQDVIKAVDEGYRLPPPMDCPAALYQLMLDCWQKDRNNRPKFEQIVSILDKLIRNPGSLKIITSAAARPSNLLLDQSNVDITTFRTTGDWLNGVWTAHCKEIFTGVEYSSCDTIAKISTDDMKKVGVTVVGPQKKIISSIKALETQSKNGPVPV
stoichiometry N: 2

Source: paper PMC4692061 (Biochemical Journal, 2015)
